Holding throughout (assay): SPR (Biacore); receptor-Fc captured by anti-Fc antibody, ligand injected
In general terms: Surface plasmon resonance follows binding to a sensor surface in real time, without labels.

One assay deals with T1, BMP10 (UniProt O95393 317-424).
T1 sequence (looked up): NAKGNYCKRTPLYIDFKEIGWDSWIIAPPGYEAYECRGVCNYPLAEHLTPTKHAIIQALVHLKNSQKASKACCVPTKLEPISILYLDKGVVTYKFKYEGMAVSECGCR
The protocol: (§1) A Biacore™-based binding assay was used to compare ligand binding selectivity of an exemplary ALK4-Fc:ActRIIB-Fc heterodimeric complex as described above with the binding selectivity of ActRIIB-Fc and ALK4-Fc homodimer complexes. The ALK4-Fc:ActRIIB-Fc heterodimer, ActRIIB-Fc homodimer, and ALK4-Fc homodimer were independently captured onto the system using an anti-Fc antibody. Ligands were injected and allowed to flow over the captured receptor protein. Results are summarized in the Table 5 below, in which ligand off-rates (kd) most indicative of effective ligand traps are denoted by gray shading.

In the next assay the target is T2, GDF3 (UniProt Q9NR23 251-364).
T2 sequence (looked up): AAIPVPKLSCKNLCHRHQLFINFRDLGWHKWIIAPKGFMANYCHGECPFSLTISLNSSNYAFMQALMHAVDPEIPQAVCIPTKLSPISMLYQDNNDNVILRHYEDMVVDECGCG
The protocol:
as §1

The next assay concerns the target T3, activin B (UniProt P09529 293-407).
T3 sequence (looked up): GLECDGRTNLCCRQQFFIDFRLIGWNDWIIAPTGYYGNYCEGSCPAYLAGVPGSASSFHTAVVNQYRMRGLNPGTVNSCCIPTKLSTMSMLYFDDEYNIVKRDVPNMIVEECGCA
The protocol: as §1

A further assay concerns the target T4, GDF11 (UniProt O95390 299-407).
T4 construct: also called BMP11
T4 sequence (looked up): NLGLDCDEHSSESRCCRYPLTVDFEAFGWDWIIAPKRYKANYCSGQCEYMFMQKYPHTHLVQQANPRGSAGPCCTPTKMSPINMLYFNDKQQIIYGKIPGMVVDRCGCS
Here is the method:
as §1

For another assay, the target named is T5, GDF8 (UniProt O14793 267-375).
T5 construct: also called myostatin
T5 sequence (looked up): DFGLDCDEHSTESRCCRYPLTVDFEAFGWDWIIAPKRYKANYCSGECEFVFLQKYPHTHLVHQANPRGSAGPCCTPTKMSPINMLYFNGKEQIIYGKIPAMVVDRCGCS
Here is the method:
as §1

In the next assay the target is T6, BMP6 (UniProt P22004 382-513, limits assumed).
T6 sequence (looked up): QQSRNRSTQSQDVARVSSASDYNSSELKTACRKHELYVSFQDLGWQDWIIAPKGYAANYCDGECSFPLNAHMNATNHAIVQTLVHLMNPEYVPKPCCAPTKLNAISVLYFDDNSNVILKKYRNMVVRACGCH
Here is the method:
as §1

The target of another assay is T7, activin A (UniProt P08476 311-426).
T7 sequence (looked up): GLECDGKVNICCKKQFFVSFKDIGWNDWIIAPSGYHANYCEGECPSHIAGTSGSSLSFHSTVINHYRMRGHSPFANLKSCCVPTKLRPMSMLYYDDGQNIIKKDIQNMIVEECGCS
Here is the method: as §1

These results are taken from US20220259297A1 (ACCELERON PHARMA, published 2022).

B1: ALK4-Fc:ActRIIB-Fc heterodimer (Fc fusion)
chain 1: SGPRGVQALLCACTSCLQANYTCETDGACMVSIFNLDGMEHHVRTCIPKVELVPAGKPFYCLSSEDLRNTHCCYTDYCNRIDLRVPSGHLKEPEHPSMWGPVETGGGTHTCPPCPAPELLGGPSVFLFPPKPKDTLMISRTPEVTCVVVDVSHEDPEVKFNWYVDGVEVHNAKTKPREEQYNSTYRVVSVLTVLHQDWLNGKEYKCKVSNKALPAPIEKTISKAKGQPREPQVYTLPPSREEMTKNQVSLTCLVKGFYPSDIAVEWESNGQPENNYDTTPPVLDSDGSFFLYSDLTVDKSRWQQGNVFSCSVMHEALHNHYTQKSLSLSPG
chain 2: GRGEAETRECIYYNANWELERTNQSGLERCEGEQDKRLHCYASWRNSSGTIELVKKGCWLDDFNCYDRQECVATEENPQVYFCCCEGNFCNERFTHLPEAGGPEVTYEPPPTAPTGGGTHTCPPCPAPELLGGPSVFLFPPKPKDTLMISRTPEVTCVVVDVSHEDPEVKFNWYVDGVEVHNAKTKPREEQYNSTYRVVSVLTVLHQDWLNGKEYKCKVSNKALPAPIEKTISKAKGQPREPQVYTLPPSRKEMTKNQVSLTCLVKGFYPSDIAVEWESNGQPENNYKTTPPVLKSDGSFFLYSKLTVDKSRWQQGNVFSCSVMHEALHNHYTQKSLSLSPGK
notes: The C-terminal lysine is optional; also called ALK4-Fc:ActRIIB-Fc heterodimeric complex; ALK4:ActRIIB heterodimer
As usually defined, the koff is the rate constant with which the complex falls apart. High values mean fast dissociation, low ones slow dissociation. For orientation: kon means a measure of how fast the partners come together. Low readings indicate slow association, high ones fast association. B1: the koff with BMP10 amounted to 0.0041 s⁻¹; in the assay with GDF3, 0.017 s⁻¹; in the assay with activin B, 4e-05 s⁻¹; in the assay with GDF11, 0.00011 s⁻¹; with GDF8, 0.00021 s⁻¹; with BMP6, 0.0055 s⁻¹. Moreover, in the assay with activin A, the koff is 0.00015 s⁻¹. Moreover, the kon turned out to be 5.6e+07 M⁻¹ s⁻¹ with BMP10; 3.4e+06 M⁻¹ s⁻¹ with GDF3; 7.1e+06 M⁻¹ s⁻¹ with activin B; 3.8e+07 M⁻¹ s⁻¹ in the assay with GDF11; 390000 M⁻¹ s⁻¹ with GDF8; 2e+06 M⁻¹ s⁻¹ with BMP6. For the same molecule, the kon with activin A came to 1.3e+07 M⁻¹ s⁻¹.
